Assay results reported in paper PMC4818545.
pKd: −log10 of the molar value. Like-named read-outs stand apart in the source and are kept apart here.

What was measured:
[1] = molecular target: fibrin (β15-66)2 fragment 15-66 (Homo sapiens) (UniProt P02675); assay: ELISA; conditions: cited from earlier work
[2] = molecular target: recombinant (β15–66)2 fragment; assay: ELISA
[3] = molecular target: VLDLR(2–3)HT (human) (UniProt P98155); assay: SPR
[4] = molecular target: VLDLR(2–4)HT (human) (UniProt P98155); assay: SPR
[5] = molecular target: VLDLR(1–4)HT (human) (UniProt P98155); assay: SPR
[6] = molecular target: VLDLR(1–8)HT (human) (UniProt P98155); assay: SPR
[7] = molecular target: recombinant (β15–66)2 fragment; assay: ELISA; remark: listed apart in the source
[8] = molecular target: recombinant (β15–66)2 fragment; assay: ELISA; remark: listed apart in the source

Chain of UniProt P02675 (P02675 15-66): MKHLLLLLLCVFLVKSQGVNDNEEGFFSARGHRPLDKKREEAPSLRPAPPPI

Row | Substance | pKd [2] | pKd [8] | also measured
1 | sVLDLR ECD (from UniProt P98155) |  |  | pKd [1]: 8.24
2 | VLDLR(2–3)HT (from UniProt P98155 69-151) (domain or fragment) | 7.11 |  | 
3 | recombinant (β15–66)2 fragment (domain or fragment) |  |  | pKd [3]: 8.02; pKd [4]: 8.34; pKd [5]: 8.43; pKd [6]: 8.51
4 | VLDLR(1–4)HT (from UniProt P98155 28-190) (domain or fragment) | 7.22 |  | 
5 | VLDLR(1–8)HT (from UniProt P98155 28-355) (domain or fragment) | 7.79 | 8.47 | pKd [7]: 7.68
6 | soluble form of human VLDL receptor, sVLDLRHT (from UniProt P98155 28-797) | 7.79 | 8.60 | 
